The source of these data is US20260008839A1 (BRIGHAM AND WOMEN S HOSPITAL, published 2026).

In experiment [1] the target is Dll4. Description: flow cytometry: recombinant NOTCH1-Fc + PE anti-IgG Fc on DLL4-expressing Cf2Th cells pre-treated with control IgG; gate PE+.
Experiment [2] concerns the target Dll4. Kind of experiment: flow cytometry: recombinant NOTCH1-Fc + PE anti-IgG Fc on DLL4-expressing Cf2Th cells pre-treated with control IgG. In general terms: A flow cytometer gives signals particle by particle.
The target of experiment [3] is Dll4. Kind of experiment: flow cytometry: recombinant NOTCH1-Fc + PE anti-IgG Fc on DLL4-expressing HEK293T cells pre-treated with control IgG; gate PE+.
Experiment [4] addresses T1, human DLL4 (human, UniProt Q9NR61 27-529, limits assumed).
T1 construct: also called Hu.DLL4; HuDLL4
Kind of experiment: SPR Biacore 3000, antibody captured on anti-rat Fc (161 RU), scouting at 100 nM analyte. On the procedure:
(§1) Binding experiments were performed on Biacore 3000 at 25° C. Flow cell 2, 3 and 4 of the CM5 chip were coated with the goat anti-rat Fc Capture Ab using EDC/NHS the amine coupling method as per GE manufacturer's instruction. The unoccupied sites were blocked with 1M ethanolamine. Three test antibodies were captured at an RU as indicated on flow cell 2, 3 and 4. Ag was flowed over the chip. Binding of antigen to the antibodies was monitored in real time. From the observed kₒₙ and koff, KD was determined. For the interactions with fast off rate, steady state kinetics was used to determine KD.
(§2) Scouting analysis was performed using a single analyte concentration of 100 nM. At this concentration, binding should be observed even if the ligand binding affinity is weak. Flow cell 1 response was used for reference subtraction.
On the technique in general: SPR reads the build-up and loss of mass on a sensor chip optically.

The target of experiment [5] is T2, human DLL1 (human, UniProt O00548 18-545, limits assumed).
T2 construct: Construct not described; also called Hu.DLL1
T2 sequence (looked up): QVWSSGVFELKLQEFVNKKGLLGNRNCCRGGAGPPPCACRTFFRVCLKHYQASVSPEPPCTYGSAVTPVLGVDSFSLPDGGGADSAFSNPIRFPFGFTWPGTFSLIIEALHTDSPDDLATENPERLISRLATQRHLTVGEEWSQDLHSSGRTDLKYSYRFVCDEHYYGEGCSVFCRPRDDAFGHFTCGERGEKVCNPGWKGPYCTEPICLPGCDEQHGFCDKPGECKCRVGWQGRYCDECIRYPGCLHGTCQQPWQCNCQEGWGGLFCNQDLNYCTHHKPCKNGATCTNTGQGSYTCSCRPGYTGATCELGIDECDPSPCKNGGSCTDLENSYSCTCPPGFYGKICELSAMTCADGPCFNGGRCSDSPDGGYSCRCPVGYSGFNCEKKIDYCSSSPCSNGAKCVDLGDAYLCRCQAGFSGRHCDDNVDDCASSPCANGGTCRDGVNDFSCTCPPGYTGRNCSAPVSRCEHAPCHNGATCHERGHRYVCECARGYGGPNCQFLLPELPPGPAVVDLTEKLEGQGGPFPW
Kind of experiment: SPR Biacore 3000, antibody captured on anti-rat Fc (161 RU), scouting. On the procedure:
as §1, §2

The target in experiment [6] is T3, porcine DLL4 (porcine, UniProt A0A4X1URL1 27-529).
T3 construct: Construct not described (pig DLL4 ECD is named only for hybridoma screening); also called pig DLL4; porcine DDL4
Kind of experiment: SPR Biacore 3000, antibody captured on anti-rat Fc (130 RU), full kinetics, analyte 0-200 nM. The method, then:
as §1

Experiment [7] has as its target T3, porcine DLL4. Description: SPR Biacore 3000, antibody captured on anti-rat Fc (75 RU), scouting at 20 nM and 100 nM analyte.
For experiment [8], the target named is T3, porcine DLL4. Description: SPR Biacore 3000, antibody captured on anti-rat Fc (80 RU), full kinetics, analyte 0-50 nM. On the procedure:
as §1

In experiment [9] the target is T1, human DLL4. Description: SPR Biacore 3000, antibody captured on anti-rat Fc (170 RU), scouting at 100 nM analyte. On the procedure: as §1, §2
The target in experiment [10] is T1, human DLL4. Kind of experiment: head of the antibody's table; summary bound, assay and unit not named there.
The target of experiment [11] is T2, human DLL1. Kind of experiment: head of the antibody's table; assay not named.
The target in experiment [12] is T1, human DLL4. Description: SPR Biacore 3000, full kinetics, against 8D2 as reference. On the procedure: as §1
The target of experiment [13] is T3, porcine DLL4. Kind of experiment: SPR Biacore 3000, antibody captured on anti-rat Fc (80 RU), scouting at 20 nM and 100 nM analyte. On the procedure: as §1
Experiment [14] deals with T1, human DLL4. Kind of experiment: SPR Biacore 3000, antibody captured on anti-rat Fc (90 RU), full kinetics, analyte 0-25 nM. The method, then: as §1
Experiment [15] deals with T1, human DLL4. Kind of experiment: SPR Biacore 3000, antibody captured on anti-rat Fc (140 RU), full kinetics, analyte 0-12.5 nM. On the procedure: as §1
The target of experiment [16] is T2, human DLL1. Kind of experiment: SPR Biacore 3000, antibody captured on anti-rat Fc (220 RU), scouting. The method, then: as §1, §2
Experiment [17] deals with T3, porcine DLL4. Description: SPR Biacore 3000, antibody captured on anti-rat Fc (110 RU), full kinetics, analyte 0-50 nM. The method, then: as §1
Experiment [18] concerns the target T1, human DLL4. Description: SPR Biacore 3000, antibody captured on anti-rat Fc (220 RU), scouting at 100 nM analyte. The method, then: as §1, §2

Chain of Dll4 (chain, as listed by the source limits assumed): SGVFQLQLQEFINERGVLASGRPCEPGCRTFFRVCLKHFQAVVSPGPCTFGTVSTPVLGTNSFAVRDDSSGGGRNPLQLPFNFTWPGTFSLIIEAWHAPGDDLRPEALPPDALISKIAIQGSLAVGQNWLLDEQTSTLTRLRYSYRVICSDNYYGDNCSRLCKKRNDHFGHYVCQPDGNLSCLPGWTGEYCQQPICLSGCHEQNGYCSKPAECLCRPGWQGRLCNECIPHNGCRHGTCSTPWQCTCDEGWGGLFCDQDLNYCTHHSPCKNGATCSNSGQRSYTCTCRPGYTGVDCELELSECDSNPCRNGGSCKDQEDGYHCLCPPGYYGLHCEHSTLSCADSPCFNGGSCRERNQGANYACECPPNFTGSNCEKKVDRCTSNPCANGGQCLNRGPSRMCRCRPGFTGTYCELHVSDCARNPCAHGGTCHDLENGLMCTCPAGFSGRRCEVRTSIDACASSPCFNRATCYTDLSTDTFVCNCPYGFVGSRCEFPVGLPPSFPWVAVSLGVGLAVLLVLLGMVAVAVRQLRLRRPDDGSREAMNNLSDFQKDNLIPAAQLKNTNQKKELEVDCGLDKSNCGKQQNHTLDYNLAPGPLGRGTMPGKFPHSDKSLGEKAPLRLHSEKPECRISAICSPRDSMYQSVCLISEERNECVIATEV
T3 sequence (A0A4X1URL1 entry or part of it): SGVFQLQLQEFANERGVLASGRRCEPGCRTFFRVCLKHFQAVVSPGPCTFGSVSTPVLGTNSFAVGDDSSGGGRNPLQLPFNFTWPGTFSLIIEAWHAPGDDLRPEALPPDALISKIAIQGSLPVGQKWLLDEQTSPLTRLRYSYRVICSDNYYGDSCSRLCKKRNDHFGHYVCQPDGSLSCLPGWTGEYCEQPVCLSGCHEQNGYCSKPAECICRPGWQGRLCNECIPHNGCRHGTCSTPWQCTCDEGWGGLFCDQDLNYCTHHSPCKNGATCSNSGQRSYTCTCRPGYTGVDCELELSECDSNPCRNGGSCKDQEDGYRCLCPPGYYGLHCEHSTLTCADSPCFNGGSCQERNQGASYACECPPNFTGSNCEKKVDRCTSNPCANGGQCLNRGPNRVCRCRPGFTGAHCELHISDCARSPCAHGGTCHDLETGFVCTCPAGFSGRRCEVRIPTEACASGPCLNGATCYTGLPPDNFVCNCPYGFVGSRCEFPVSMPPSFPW
T1 sequence (Q9NR61 27-529 limits assumed): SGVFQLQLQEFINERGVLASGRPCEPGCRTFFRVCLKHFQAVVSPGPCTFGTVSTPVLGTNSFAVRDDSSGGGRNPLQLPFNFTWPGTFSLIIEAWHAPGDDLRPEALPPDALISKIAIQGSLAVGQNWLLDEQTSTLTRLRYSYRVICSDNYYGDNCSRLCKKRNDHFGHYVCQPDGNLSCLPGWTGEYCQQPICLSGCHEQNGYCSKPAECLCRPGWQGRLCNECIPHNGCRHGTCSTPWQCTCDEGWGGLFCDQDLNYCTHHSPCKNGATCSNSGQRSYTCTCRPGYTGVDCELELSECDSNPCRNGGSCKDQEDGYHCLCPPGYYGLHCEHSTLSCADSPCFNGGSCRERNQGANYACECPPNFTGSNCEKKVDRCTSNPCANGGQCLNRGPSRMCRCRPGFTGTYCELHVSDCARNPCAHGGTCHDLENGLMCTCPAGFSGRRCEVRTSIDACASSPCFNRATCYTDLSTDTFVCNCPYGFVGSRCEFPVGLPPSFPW

NOTCH1-Fc (Fc fusion): the PE positive cells (%) with Dll4 [1] worked out at 11%; with Dll4 [2] it was 16.8%; in the experiment with Dll4 [3], 9.6%.

B1: Monoclonal Antibody 2H10 (antibody, V domains shown)
VH: QVQVKESGPGLVQPSQTLSLTCIVSGFSLSSYHVSWVRQPPGKSLVWMGTIWAGGGTNYNSAVQSRLSISRDTSKSQVFLKVNSLQPEDTGTYYCARHYYDGYYHGPYFDYWGQGVMVTV
VL: SPASLSASLGETVTFECRASEDIYTNLAWYQQKPGNSPQLLIYDANTLADGVPSRFSGSGSGTQFSLKINSLQSEDVASYFCQQYDSYPWTFGGGTKLELRR
notes: Rat hybridoma monoclonal antibody, IgG type (captured by goat anti-rat Fc); also called BMH-2H10-A7
Usually Kd stands for the concentration at which binding is half-saturated. Usually koff stands for a measure of how fast the partners let go of each other. A low value points to a long-lived complex. As usually defined, the kon is a measure of how fast the partners come together. The low end stands for slow association, the high end for fast association. Take B1: in the experiment with human DLL4 [4], binding was put at a Kd of 88.6 nM, the koff came out at 0.00109 s⁻¹ and the kon turned out to be 12400 M⁻¹ s⁻¹. The binding result in the experiment with human DLL1 [5] was “no binding (tested: 100 nM)”. In the experiment with porcine DLL4 [6], binding was characterised by a dissociation constant (Kd) of 9370 nM, the koff turned out to be 0.00276 s⁻¹ and the on-rate (kon) was 295 M⁻¹ s⁻¹. In addition, in the experiment with porcine DLL4 [7], the Kd amounted to 1240 nM, the koff was 0.00345 s⁻¹ and the kon worked out at 2790 M⁻¹ s⁻¹.

B2: Monoclonal Antibody 8C2 (antibody, V domains shown)
VH: QVQLKESGPGLVQPSQTLSLTCTVSGISISIYGVSWVRQPPGKGLEWMGGIWGDGSTDYNSALKSRLSLSRDTSKSQVFLKMNSLQTEDTAIYFCTLSGDFDYWGHGVLVTVSS
VL: DIQLTQSPASLSASLDEIVTITCQASLDIGNWLAWYQQKTGKSPQLLIYGATSLAGGVPSRFSGSRSGTQYSLKISKLQVEDTGIYYCLQHYRAPFTFGSGTKLEI
notes: Rat hybridoma monoclonal antibody, IgG type (captured by goat anti-rat Fc); also called BMH-8C2-D10; BMH-8C2-D4
Consider B2, for which the equilibrium dissociation constant (Kd) in the experiment with porcine DLL4 [8] amounted to 7.07 nM; in the experiment with human DLL4 [9], 3.68 nM; in the experiment with porcine DLL4 [13], 15.4 nM; in the experiment with human DLL4 [14] it was 0.343 nM. In addition, the koff with porcine DLL4 [8] came to 0.00198 s⁻¹; with human DLL4 [9], 0.000505 s⁻¹; in the experiment with porcine DLL4 [13] it was 0.00162 s⁻¹; with human DLL4 [14], 0.000439 s⁻¹. The kon was 281000 M⁻¹ s⁻¹ with porcine DLL4 [8]; 137000 M⁻¹ s⁻¹ with human DLL4 [9]; greater than 500000 M⁻¹ s⁻¹ with human DLL4 [10]; 106000 M⁻¹ s⁻¹ with porcine DLL4 [13]; 1.28e+06 M⁻¹ s⁻¹ with human DLL4 [14]. The binding result in the experiment with human DLL1 [11] was “no binding”. Further, the “fold higher affinity than 8D2” value with human DLL4 [12] was roughly 10 fold. Moreover, in the experiment with human DLL4 [12], the “fold lower off rate than 8D2” value worked out at 4 fold.

B3: Monoclonal Antibody 8D2 (antibody, V domains shown)
VH: SGGGLVQPGRSMKLSCAASGFTFSNYDMAWVRQDPKKGLEWVATISYDGRSTYYRDSVKGRFTISRDNAKSTLYLQMDSLRSEDTATYYCKDYDGHYHPYGMEAWGQGISVTVSS
VL: DIVLTQSPALAVTLGQRATISCRASQSVTISNYNLMQWYQQRPGRQPKLLIYDASNLASGIPARFSGSGSGTDFTLTIDPVQADDIATYYCQQSRDDPRTFGGGTKLELR
notes: Rat hybridoma monoclonal antibody, IgG type (captured by goat anti-rat Fc); also called BMH-8D2-D10; rat 8D2
On to B3, for which the equilibrium dissociation constant (Kd) turned out to be 2.12 nM in the experiment with human DLL4 [15], 9.95 nM with porcine DLL4 [13], 7.21 nM with porcine DLL4 [17] and 2.27 nM in the experiment with human DLL4 [18]. Also, the koff was determined as 0.00161 s⁻¹ with human DLL4 [15], 0.00171 s⁻¹ in the experiment with porcine DLL4 [13], 0.00182 s⁻¹ with porcine DLL4 [17] and 0.00108 s⁻¹ with human DLL4 [18]. For the same molecule, the kon with human DLL4 [15] is 759000 M⁻¹ s⁻¹; with porcine DLL4 [13], 172000 M⁻¹ s⁻¹; with porcine DLL4 [17], 253000 M⁻¹ s⁻¹; in the experiment with human DLL4 [18], 474000 M⁻¹ s⁻¹. Further, the binding result with human DLL1 [16] was “no binding (tested: 100 nM)”.
